From the NTF2 design screens of Basanta et al. (2020)

Assay: protease stability score; higher = more stable; yeast display proteolysis, trypsin and chymotrypsin;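 also: relative to predicted unfolded state with 0 unfolded-like and 1 meaning tenfold more protease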

| Sequence | protease stability score |
| --- | --- |
| SDEEERLERVSELLLHAIETGDWRILAELADPHVRLEIGDKEIHGREIVVDLIRKEYDKYKNMRITNEDFDVQGNKTEWHVNIHIGDKEVRIHIYNVVINGKIRRRHIHIR | 1.23 |
| SEEEEILHKMAEDNIQMLQTGDEETLKRLLDPNVRIHIGEFRTHGMEKLSHWLLHLRIRDIRIHSMRIIDGVADIDGTVEIEQGDKRHTVNMRIFIIVINGKNHSFIFRWH | 1.76 |
| SEDEESSKFALELMWHWEKTGDEKAISELADPHTLNHVNGVDLHGRELVIHFIHHMRIKRVHLKRIEIRMIGDYLDIRIHGRVDGEINGKDRDFHTDLVLIMRKVDGRWFVKSMSVIII | 1.45 |
| SEEEEVMERFVELLIKLLITGDEEVLEHLMDPNVRIQIGDKVYHGREVARDLWRRYHRHWRIHDTEVKHHHVQGEFIEIHISIDGEIDGRREEERIIFFVVKINGRWLLHDIHFN | 2.51 |
| DDRERQAESMMHLWLEVLLTGDEDRLMKLADPNTRHHVNGVDAHGRENIKRVAKEFDEQMRIHRVEIRQVRIIGDKTEVDGRVDVEVNGRRRDTETHLRVIVIDGRIHEVHLIIR | 0.725 |
| SEEEEDAHRNIELLVRYLITGDEETVSRLVDPHVKTDINGQEDHGWQIMSILMEKFKNVTLRLHDIETQGNFAVINMKMRFNGQTFDLHFFARKVNGRWFVEHIKIRQN | 1.62 |
| DEDDEHSEEIAKMWMHLVHTGDFDSETKLVDPHVKFKIDGREIIGREVFMQLMIELRHILRDSKIDDLNRQGEFLHVHGQVHGELIIGDKNFEINHKVEFIIIKVNGRWFAHTIIFR | 1.64 |
| DHDTRRHEKILSDYAHALHTGNFHMLKELMDPHVRLEIGDKEFVGREEVMRYLQHIRSYIHRLRIDHIEIQGDKIHSDVREHLHFEIGDKDHNHDTRVEQLWLKVNGRWLLQQIVVR | 2.16 |
| DDRSEHAIHAFYEWWERFLTGDEKRLYELADPNTRLHVNGQRIHGMEEIMERILDLLKRVKNMRVDFDVRDVELQGDKIILRIEIILKYNGQKVRIDVHIISRKINGRWFLEQEREE | 0.558 |
| DEDHEAVERLLEHLQTAFLTGDWRREDELVDPNARVHFNGQERHGRHVLRYVNEFLEDRFKNLQIRHSTVHDSHVQGDKIILFTSYELRVDGREFSLKTKIIFHKVDGRWLVTHLYIE | 0.823 |
| DEEERLMKELSDRFLHMKETGDEELFHKLADPNVRVEIGDKSRHGRELATEFLSWVMKELGVKHVKLHDKRTYDGRVHLNGTLEFNGREFRVRITVIIVNGRVHDIRVELE | 0.771 |
| HEEEREAHEMLRIIVHAIRTGDEELLMRYLDPDVRMILLVDGVEVHRIGREEASKLISELWHHIRLKDLKVREIDNQGEYSHVRTERDGEVNGKKNTLETELDIIVIDGRVTDVTIRIR | 1.1 |
| DEKERLAHEFHERFLEALMTGDEHHIEEMFDPNARTRQGDKTFHGRERSLHLISEWWRQIDVVRDIHIHEIKFQGDFLSFHLMIDGEINGRRDELVVHVESRKIDGKWFLHSVTYT | 0.497 |
| DEQERLMRKLAEIIVEAIITGDWRSLAELFDPDVRIDINGRELIGRETWVTWLQEEYKRFKNQRIELHIRDVDVQGDYSHIDGHSRIVIGDFVFTTEIHTEIVIIDGRVHSMHHHVK | 1.18 |
| SEEERRDEHLMRLWVHLLLTGDEDTLKKLADPDARLVVGDKTFHGMEEVSRIMHEFLRRLGIKHFHDLDFKHVRHINGVAHFNGRLHGIQGEFERNTNIEFVVVVVDGRIKSSEIHWH | 1.41 |
| SEEEKRARIASELLFEYLHTGDETLWEELMDPDVRLEINGRLFHGMDSFRHALEIWLKEIRLRDMRVRELHVIGDKIHVNSEDEVEVNGRVVNYESRLDMEKIDGRWRIKRTSIK | 1.19 |
| SDEEEYTRKAIERWIKDFITGNEDLIRKFADPNTRMEWNGKEHHGMELMVKVLKREIHEIRLQKFDVHHVEIYNGRAIVHLKLHGTIDGREETLDVIIFSEKINGQWRVEQLSIR | 1.39 |
| SEDEEDMKKASETISEEYHTGDEDAHKKLMDPNARMLYGDKDTHGREHWEHVIKRFGFDHVIIKRIEIHVYDGRIDLHMDVRLIVNGQNLEVRLIIIVRKINGRWRIESVNIHIE | 0.061 |
| DRLEELLRHVSSLFLHSVETGDFDILQKLADPHVRMEVDGKELHGREHMVQRILDEYHKFGFTQIDSRLEDVRVYGDKVEVDLEHHFDGKTYKYEIILRKVNGRWTLESVIVR | 1.22 |
| SEEEHEAIKHAYEFLEWLRTGDEEKIEKLLDPNVRLIIGDKTAHGREEFIRVMKEELERMGVNVFRLRDTRVNIFDGRVEIRFDTDLHFNGKTVHVELILRVHKVDGRWVLESVQVNIH | 1.48 |
